Publication PMC4593522, “Development of a Radiolabeled Peptide-Based Probe Targeting MT1-MMP for Breast Cancer Detection” (PLoS ONE, 2015)
Like-named read-outs stand apart in the source and are kept apart here. Square brackets hold non-standard residues; d marks the D form. Peptide text beside a SMILES is read from it. * marks the point of attachment. HYNIC = NNc1ccc(C(=O)*)cn1; AEEA = NCCOCCOCC(=O)O

How the values were obtained:
[1] = tested on: MT1-MMP-positive MDA-MB-231 tumor; assay: SPECT imaging of MDA-MB-231 tumor-bearing mice; type: in vivo; conditions: mean ± SD; for tumor uptake (SPECT ROI), blocking: 200 μg unlabeled AF7P injected 30 min ahead of tracer; for tumor uptake (SPECT ROI), unblocked: i.v.
Description: (§1) All animal experiments were approved by Jilin University Health Science Center Animal Care and Use Committee. Human breast carcinoma cell line MDA-MB-231 with high MT1-MMP expression and human lung adenocarcinomaepithelial cell line A549 with low MT1-MMP expression were cultured in DMEM medium containing 10% (v/v) fetal bovine serum (Invitrogen) supplemented with penicillin (100 μg/mL) and streptomycin (100 μg/mL) at 37°C with 5% CO2. MDA-MB-231 and A549 tumor models were established by subcutaneous injection of 5×10^6 cells into the upper right front flank of female athymic nude mice (Department of Experimental Animal, Peking University Health Science Center). Tumor growth was monitored by caliper measurements three times a week after the tumors are palpable. The mice were used for SPET/CT imaging when the tumor volume reached about 200 mm3 (about 14 days after tumor inoculations). The tumor volume was determined as the formula: V = a × (b^2)/2, where a and b are the length and width of each tumor in mm respectively. During the injection and image acquisition process, the mice were anesthetized with 2.5% isoflurane in oxygen delivered at a flow rate of 1.5 L/min.
The imaging study was performed using the female BALB/c nude mice bearing the MDA-MB-231 tumors and A549 tumors. Each tumor-bearing mouse was administered intravenously with [^99mTc]-(HYNIC-AF7P)(tricine)(TPPTS) (22.2 MBq/mice) in 0.1 mL saline. For blocking test, 200 μg free AF7P was intravenously injected into MDA-MB-231 tumor bearing mice 30 min before [^99mTc]-(HYNIC-AF7P)(tricine)(TPPTS) was injected. Animals were placed prone on a two-head γ-camera (SIEMENS, E. CAM) equipped with a parallel-hole, low-energy, and high-resolution collimator. Posterior images were acquired at 0.5, 2 and 4 hours post injection (p.i.). The acquisition count limits were set at 700k. After completion of imaging, animals were sacrificed by cervical dislocation.

[2] = In vivo biodistribution study (ex vivo organ counting); parameters: species or system mice; conditions: female, mouse, iv, total radioactivity, mean ± SD, n = 3; for tissue uptake at 0.5 h: 0.5h after i.v.; for tissue uptake at 1 h: 1h after i.v.; for tissue uptake at 2 h: 2h after i.v.; for tissue uptake at 4 h: 4h after i.v.
Description: as §1
Animals were divided into 4 groups (n = 3) for 4 time points with approximately equal distribution of tumor sizes on the day before the study. At 0.5, 1, 2, and 4 h after intravenous administration of [^99mTc]-(HYNIC-AF7P)(tricine)(TPPTS), MDA-MB-231 tumor bearing mice were euthanized. […] The organ uptake was calculated as a percentage of the injected dose per gram of wet tissue (%ID/g).

[3] = BALB/c nude, blood, read-out: Blood uptake
[4] = BALB/c nude, bone, read-out: Bone uptake
[5] = BALB/c nude, heart, read-out: Heart uptake
[6] = BALB/c nude, kidney, read-out: Kidney uptake
[7] = BALB/c nude, liver, read-out: Liver uptake
[8] = BALB/c nude, lung, read-out: Lung uptake
[9] = BALB/c nude, muscle, read-out: Muscle uptake
[10] = BALB/c nude, spleen, read-out: Spleen uptake
[11] = athymic nude, intestine, read-out: Intestine uptake
[12] = athymic nude, pancreas, read-out: Pancreas uptake

SMILES: CC(C)C[C@H](NC(=O)[C@H](Cc1ccccc1)NC(=O)[C@@H](NC(=O)[C@H](CCCCN)NC(=O)[C@@H](NC(=O)[C@H](CC(N)=O)NC(=O)[C@H](Cc1c[nH]cn1)NC(=O)[C@H](CC(C)C)NC(=O)[C@H](Cc1c[nH]cn1)NC(=O)[C@H](CCCCN)NC(=O)[C@H](Cc1c[nH]c2ccccc12)NC(=O)[C@H](Cc1c[nH]cn1)NC(=O)c1ccc(NN)nc1)[C@@H](C)O)[C@@H](C)O)C(=O)NCCOCCOCC(=O)O [[^99mTc]-(HYNIC-AF7P)(tricine)(TPPTS), metal not drawn] ({HYNIC}-HWKHLHNTKTFL[AEEA]-OH)
- tumor uptake (SPECT ROI), blocking ([1]; 0.5 h p.i.): 1.15±0.05 %ID/g
- tumor uptake (SPECT ROI), unblocked ([1]; 0.5 h p.i.): 4.15±0.27 %ID/g
- tumor uptake (SPECT ROI), blocking ([1]; 2 h p.i.): 1.05±0.12 %ID/g
- tumor uptake (SPECT ROI), unblocked ([1]; 2 h p.i.): 2.58±0.21 %ID/g
- tumor uptake (SPECT ROI), blocking ([1]; 4 h p.i.): 1.03±0.34 %ID/g
- tumor uptake (SPECT ROI), unblocked ([1]; 4 h p.i.): 1.59±0.11 %ID/g
- tissue uptake at 0.5 h [2, 3]: 0.36 ± 0.02 %ID/g
- tissue uptake at 1 h [2, 3]: 0.28 ± 0.01 %ID/g
- tissue uptake at 2 h [2, 3]: 0.2 ± 0.01 %ID/g
- tissue uptake at 4 h [2, 3]: 0.19 ± 0.01 %ID/g
- tissue uptake at 0.5 h [2, 4]: 0.8 ± 0.04 %ID/g
- tissue uptake at 1 h [2, 4]: 0.58 ± 0.03 %ID/g
- tissue uptake at 2 h [2, 4]: 0.44 ± 0.02 %ID/g
- tissue uptake at 4 h [2, 4]: 0.4 ± 0.02 %ID/g
- tissue uptake at 0.5 h [2, 5]: 2.28 ± 0.16 %ID/g
- tissue uptake at 1 h [2, 5]: 1.67 ± 0.2 %ID/g
- tissue uptake at 2 h [2, 5]: 0.98 ± 0.07 %ID/g
- tissue uptake at 4 h [2, 5]: 0.64 ± 0.04 %ID/g
- tissue uptake at 0.5 h [2, 6]: 8.86 ± 0.48 %ID/g
- tissue uptake at 1 h [2, 6]: 7.42 ± 0.43 %ID/g
- tissue uptake at 2 h [2, 6]: 4.84 ± 0.19 %ID/g
- tissue uptake at 4 h [2, 6]: 4.33 ± 0.2 %ID/g
- tissue uptake at 0.5 h [2, 7]: 5.22 ± 0.17 %ID/g
- tissue uptake at 1 h [2, 7]: 3.9 ± 0.32 %ID/g
- tissue uptake at 2 h [2, 7]: 2.89 ± 0.11 %ID/g
- tissue uptake at 0.5 h [2, 8]: 2.11 ± 0.06 %ID/g
- tissue uptake at 1 h [2, 8]: 1.45 ± 0.18 %ID/g
- tissue uptake at 2 h [2, 8]: 1.01 ± 0.03 %ID/g
- tissue uptake at 4 h [2, 8]: 0.7 ± 0.09 %ID/g
- tissue uptake at 0.5 h [2, 9]: 0.9 ± 0.06 %ID/g
- tissue uptake at 1 h [2, 9]: 0.68 ± 0.09 %ID/g
- tissue uptake at 2 h [2, 9]: 0.53 ± 0.04 %ID/g
- tissue uptake at 4 h [2, 9]: 0.52 ± 0.04 %ID/g
- tissue uptake at 0.5 h [2, 10]: 0.9 ± 0.07 %ID/g
- tissue uptake at 1 h [2, 10]: 0.71 ± 0.06 %ID/g
- tissue uptake at 2 h [2, 10]: 0.56 ± 0.06 %ID/g
- tissue uptake at 4 h [2, 10]: 0.41 ± 0.02 %ID/g
- tissue uptake at 0.5 h [2, 11]: 1.91 ± 0.05 %ID/g
- tissue uptake at 1 h [2, 11]: 1.61 ± 0.07 %ID/g
- tissue uptake at 2 h [2, 11]: 1.52 ± 0.12 %ID/g
- tissue uptake at 4 h [2, 11]: 1.14 ± 0.08 %ID/g
- tissue uptake at 4 h ([2]; athymic nude, liver, read-out: Liver uptake): 2.55 ± 0.1 %ID/g
- tissue uptake at 0.5 h [2, 12]: 0.77 ± 0.02 %ID/g
- tissue uptake at 1 h [2, 12]: 0.52 ± 0.03 %ID/g
- tissue uptake at 2 h [2, 12]: 0.35 ± 0.04 %ID/g
- tissue uptake at 4 h [2, 12]: 0.19 ± 0.02 %ID/g
